T1: ckCDH19(1-43)::FLAG::ckCDH19(44-468)::huCDH19(464-772) (construct O, Hu EC5) (human/chicken chimera)
T1 construct: leader (1-43 of the entry) left out
T1 chain: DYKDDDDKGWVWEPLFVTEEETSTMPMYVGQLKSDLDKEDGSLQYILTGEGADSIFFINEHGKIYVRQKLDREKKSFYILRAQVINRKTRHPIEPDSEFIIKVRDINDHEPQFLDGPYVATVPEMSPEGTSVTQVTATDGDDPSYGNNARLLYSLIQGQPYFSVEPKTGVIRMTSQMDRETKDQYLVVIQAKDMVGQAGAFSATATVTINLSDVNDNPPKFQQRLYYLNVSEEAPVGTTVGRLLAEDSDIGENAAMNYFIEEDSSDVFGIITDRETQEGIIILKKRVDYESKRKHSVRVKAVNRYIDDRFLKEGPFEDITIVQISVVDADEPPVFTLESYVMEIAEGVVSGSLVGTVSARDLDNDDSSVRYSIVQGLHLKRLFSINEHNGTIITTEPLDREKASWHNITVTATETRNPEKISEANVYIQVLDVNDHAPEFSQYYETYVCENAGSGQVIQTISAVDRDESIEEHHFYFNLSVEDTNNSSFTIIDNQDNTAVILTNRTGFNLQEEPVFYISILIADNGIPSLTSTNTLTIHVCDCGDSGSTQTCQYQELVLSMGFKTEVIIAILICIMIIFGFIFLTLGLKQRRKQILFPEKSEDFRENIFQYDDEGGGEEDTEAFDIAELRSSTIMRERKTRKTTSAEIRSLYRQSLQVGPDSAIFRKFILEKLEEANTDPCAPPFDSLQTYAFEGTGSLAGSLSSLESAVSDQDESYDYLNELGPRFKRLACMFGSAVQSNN

T2: ckCDH19(1-43)::FLAG::ckCDH19(44-776) (construct J, Ck EC1-5) (chicken)
T2 construct: the entry holds leader (1-43), FLAG and ckCDH19(44-776); leader left out; also called chicken Cadherin19
T2 chain: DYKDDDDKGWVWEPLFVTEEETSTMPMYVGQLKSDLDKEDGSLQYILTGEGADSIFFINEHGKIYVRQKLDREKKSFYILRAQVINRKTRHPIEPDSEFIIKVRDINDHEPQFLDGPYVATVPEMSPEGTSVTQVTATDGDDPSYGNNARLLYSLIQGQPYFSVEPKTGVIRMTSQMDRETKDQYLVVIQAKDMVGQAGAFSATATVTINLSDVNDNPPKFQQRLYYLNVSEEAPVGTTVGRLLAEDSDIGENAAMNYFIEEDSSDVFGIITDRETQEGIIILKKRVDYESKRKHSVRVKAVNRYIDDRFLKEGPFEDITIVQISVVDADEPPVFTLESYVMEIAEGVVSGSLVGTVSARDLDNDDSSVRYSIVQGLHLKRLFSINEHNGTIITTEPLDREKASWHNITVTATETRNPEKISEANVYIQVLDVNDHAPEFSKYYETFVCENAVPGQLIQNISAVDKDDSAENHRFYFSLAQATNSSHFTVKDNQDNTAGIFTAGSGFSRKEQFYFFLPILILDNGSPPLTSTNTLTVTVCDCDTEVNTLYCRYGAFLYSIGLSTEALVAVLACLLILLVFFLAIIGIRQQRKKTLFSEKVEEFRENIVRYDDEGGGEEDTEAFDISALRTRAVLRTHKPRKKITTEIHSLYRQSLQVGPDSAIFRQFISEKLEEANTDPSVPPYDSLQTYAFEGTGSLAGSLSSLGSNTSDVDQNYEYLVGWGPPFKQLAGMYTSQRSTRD

T3: ckCDH19(1-43)::FLAG::ckCDH19(44-141)::huCDH19(142-249)::ckCDH19(250-776) (construct L, Hu EC2) (human/chicken chimera)
T3 construct: leader (1-43 of the entry) left out
T3 chain: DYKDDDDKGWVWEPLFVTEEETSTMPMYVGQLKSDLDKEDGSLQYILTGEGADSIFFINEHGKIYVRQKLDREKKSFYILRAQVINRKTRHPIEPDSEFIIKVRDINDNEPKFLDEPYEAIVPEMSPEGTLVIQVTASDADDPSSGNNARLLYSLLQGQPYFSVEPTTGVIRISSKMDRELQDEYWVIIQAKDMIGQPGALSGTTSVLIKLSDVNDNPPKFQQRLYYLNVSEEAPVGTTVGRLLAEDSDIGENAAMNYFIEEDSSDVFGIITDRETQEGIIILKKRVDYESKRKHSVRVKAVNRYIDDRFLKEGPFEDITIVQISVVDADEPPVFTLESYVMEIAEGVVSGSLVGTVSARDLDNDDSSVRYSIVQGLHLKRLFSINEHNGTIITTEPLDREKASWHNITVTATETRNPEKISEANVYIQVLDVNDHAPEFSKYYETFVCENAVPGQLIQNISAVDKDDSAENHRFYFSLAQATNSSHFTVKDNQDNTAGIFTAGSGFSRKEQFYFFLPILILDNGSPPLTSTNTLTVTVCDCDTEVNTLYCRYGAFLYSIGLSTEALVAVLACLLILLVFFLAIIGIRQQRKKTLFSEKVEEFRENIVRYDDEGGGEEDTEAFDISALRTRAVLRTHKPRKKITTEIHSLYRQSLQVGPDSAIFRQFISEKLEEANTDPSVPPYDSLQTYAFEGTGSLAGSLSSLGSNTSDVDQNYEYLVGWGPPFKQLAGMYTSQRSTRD

T4: muCDH19(44-770) with Flag tag (construct I, Mu EC1-5) (mouse)
T4 construct: leader left out; the entry starts at residue 44; also called Mo EC1-5; mouse Cadherin19
T4 chain: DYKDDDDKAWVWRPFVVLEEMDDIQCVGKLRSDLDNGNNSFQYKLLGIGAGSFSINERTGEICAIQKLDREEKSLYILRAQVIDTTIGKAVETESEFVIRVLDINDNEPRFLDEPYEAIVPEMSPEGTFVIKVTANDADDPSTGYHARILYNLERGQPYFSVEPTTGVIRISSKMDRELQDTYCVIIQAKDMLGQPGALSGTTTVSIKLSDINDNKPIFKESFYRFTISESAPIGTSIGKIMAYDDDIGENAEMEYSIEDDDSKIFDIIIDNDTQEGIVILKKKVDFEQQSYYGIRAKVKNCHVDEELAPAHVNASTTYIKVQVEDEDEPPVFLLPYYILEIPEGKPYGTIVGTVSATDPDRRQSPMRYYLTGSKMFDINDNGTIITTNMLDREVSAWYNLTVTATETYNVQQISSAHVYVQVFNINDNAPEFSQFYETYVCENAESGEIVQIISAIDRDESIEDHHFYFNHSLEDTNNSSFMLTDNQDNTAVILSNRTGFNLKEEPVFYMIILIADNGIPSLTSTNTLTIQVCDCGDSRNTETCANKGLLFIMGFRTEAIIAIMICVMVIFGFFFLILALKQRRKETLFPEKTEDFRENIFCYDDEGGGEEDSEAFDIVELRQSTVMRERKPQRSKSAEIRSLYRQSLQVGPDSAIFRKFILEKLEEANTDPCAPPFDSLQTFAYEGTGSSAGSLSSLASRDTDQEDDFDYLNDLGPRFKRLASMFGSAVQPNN


Key:
[1] = molecular target: T1, ckCDH19(1-43)::FLAG::ckCDH19(44-468)::hu …; test: flow cytometry, transfected 293T cells, 2 mM CaCl2
Description: (§1) The experiment included assaying a subset of anti-CDH19 antibodies against chicken Cadherin19 to determine suitability for binning on these human/chicken chimeras.
(§2) The following binding assay was completed in presence of 2 mM CaCl₂). […] Cells were then washed one time and the amount of cell associated Alexa647-labelled Ab was quantitated by flow cytometry. The experiments included mock transfected controls.

[2] = molecular target: T2, ckCDH19(1-43)::FLAG::ckCDH19(44-776) …; test: flow cytometry, transfected 293T cells, 2 mM CaCl2
Description: as §1, §2

[3] = molecular target: T5, huCDH19(1-43)::FLAG::hu(44-141)::ckCDH19(142-776) (construct K, Hu EC1) (human/chicken chimera); test: flow cytometry, transfected 293T cells, 2 mM CaCl2;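 further: binding of Alexa647-labelled anti-CDH19 antibodies to cells expressing human/chicken CDH19 chimeras, read as cell-bound fluorescence, with mock-transfected cells as controls, n.d. meaning not determined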
T5 construct: leader (1-43 of the entry) left out; also called huCDH19(44-141)::ckCDH19(142-776)
Description: as §1, §2

[4] = molecular target: T3, ckCDH19(1-43)::FLAG::ckCDH19(44-141)::hu …; test: flow cytometry, transfected 293T cells, 2 mM CaCl2
Description: as §1, §2

[5] = molecular target: T6, muCDH19(44-247)::huCDH19(250-364)::muCDH19(363-770) with Flag tag (construct F, Hu EC3) (human/mouse chimera); test: flow cytometry, transfected 293T cells
T6 construct: leader left out; the entry starts at residue 44; also called C137911
Excerpt: (§3) The experiment included assaying the anti-CDH19 antibodies against mouse Cadherin19 to determine suitability for binning on these human/mouse chimeras.

[6] = molecular target: T7, muCDH19(44-139)::huCDH19(142-364)::muCDH19(363-770) with Flag tag (construct E, Hu EC2-3) (human/mouse chimera); test: flow cytometry, transfected 293T cells
T7 construct: leader left out; the entry starts at residue 44; also called C137847
Excerpt: as §3

[7] = molecular target: huCDH19(44-772) with Flag tag (construct A, Hu EC1-5) (human, UniProt Q9H159 44-772); test: flow cytometry, transfected 293T cells
Excerpt: as §3

[8] = molecular target: T4, muCDH19(44-770) with Flag tag …; test: flow cytometry, transfected 293T cells, 2 mM CaCl2
Description: as §2

binding result [1]	binding result [2]	binding result [3]	binding result [4]	binding result [5]	binding result [6]	binding result [7]	binding result [8]	Binder
no binding (tested: 5 ug/ml)	no binding (tested: 5 ug/ml)	binds	no binding (tested: 5 ug/ml)					hu anti-<huCDH19> 17H8.2 (Ab ID 13874) (antibody, human IgG1, kappa, V domains shown, huIgG1z / huKLC; Bin 3; also called 23B6; 28D10) VH: QVQLQESGPGLVKPSETLSLTCTVSGGSINSYYWSWIRQPPGKGLEWIGYIYYIGSTNYNPSLKSRVTISVDTSKNQFSLKLSSVTAADTALYYCARDSRYRSGWYDAFDIWGQGTMVTVSS VL: DIVLTQSPGTLSLSPGERATLSCRASQSVAGSYLAWYQQKPGQAPRLLISGASSRATGIPDRFSGSGSGTDFTLTISRLEPEDFAVYYCQQYGKSPITFGQGTRLEMKG
				binds	binds	binds		hu anti-<huCDH19> 4A2 (1-472)(Q17E,H47P) VH::huIgG1z + 4A2 (1-236)(N30Q,T102A) VL::huKLC (Ab ID 14026) (antibody, V domains shown, Engineered variant of 4A2; the entries already carry the changes; Bin 4) VH: QVQLQESGPGLVKPSETLSLTCTVSGGSISSSGYYWSWIRQPPGKGLEWIGYIYYTGSAYYNPSLKSRVTISVDTSKNQFSLKLSSVTAADTAVYYCARDGSSGWYFQYWGQGTLVTVSS VL: EIVLTQSPGTLSLSPGERATLSCRASRQISSSYLAWYQQKPGQAPRLLIYGPSSRATGIPDRFSGSGSGTDFTLTISRLEPEDFAVYYCQQYGSSFTFGPGTKVDIKR
no binding (tested: 5 ug/ml)	no binding (tested: 5 ug/ml)	binds	no binding (tested: 5 ug/ml)				no binding (tested: 5 ug/ml)	hu anti-<huCDH19> 26F12.1 (Ab ID 13881) (antibody, human IgG1, lambda, V domains shown, huIgG1z / huLLC-C2; Bin 2; also called 27B3) VH: QVQLVQSGAEVKKPGASVKVSCKASRYTFTNYYMSWVRQAPGQGLEWMGIINPSGGDSTYAQKFQGRLTMTGDTSTSTVYMELSSLRSEDTAVYYCARGGIQLWLHFDYWGQGTLVTVSS VL: not shown
				binds	binds	binds		hu anti-<huCDH19> 4B10 (1-471)(R17G) VH::huIgG1z + 4B10 (1-236)(H45Q,A90T) VL::huKLC (Ab ID 14054) (antibody, V domains shown, Engineered variant of 4B10; the entries already carry the changes; Bin 4) VH: QVQLVESGGGVVQPGGSLRLSCAASGFTFSSYDMHWVRQAPGKGLEWVAVISYDGTNEYYADSVKGRFTISRDTSKNTLYLQMNSLRAEDTAVYYCARERYFDWSFDYWGQGTLVSVSS VL: EIVLTQSPGTLSLSPGERATLSCRASQSVSNTYLAWYQQRPGQAPRLLIYGASSRATGIPDRFSGSGSGTDFTLTISSLEPEDFAVYYCQQYSNSWTFGQGTKVEIKR
